The experiment has as its target HCV1406 TCR. Briefly: SPR; steady-state titration; TCR amine coupled to the sensor surface (1000-5000 RU), peptide/HLA-A2 injected at increasing concentrations, 5 μL/min, 25 °C, HBS-EP (10 mM HEPES, 150 mM NaCl, 3 mM EDTA, 0.005% surfactant P20, pH 7.4); 1:1 model; mutants globally fit alongside wild type with a shared RUmax.

The substance “NS3/HLA-A2 with Arg65 of HLA-A2 mutated to alanine (from UniProt P61769 21-119) (peptide-MHC)” registered a Kd above 1500 µM.
